In PMC10786891, “Massively parallel profiling of RNA-targeting CRISPR-Cas13d”:

T1: EsCas13d, nuclease-dead (Eubacterium siraeum, UniProt B0MS50, R295A;H300A;R849A;H854A)
T1 sequence: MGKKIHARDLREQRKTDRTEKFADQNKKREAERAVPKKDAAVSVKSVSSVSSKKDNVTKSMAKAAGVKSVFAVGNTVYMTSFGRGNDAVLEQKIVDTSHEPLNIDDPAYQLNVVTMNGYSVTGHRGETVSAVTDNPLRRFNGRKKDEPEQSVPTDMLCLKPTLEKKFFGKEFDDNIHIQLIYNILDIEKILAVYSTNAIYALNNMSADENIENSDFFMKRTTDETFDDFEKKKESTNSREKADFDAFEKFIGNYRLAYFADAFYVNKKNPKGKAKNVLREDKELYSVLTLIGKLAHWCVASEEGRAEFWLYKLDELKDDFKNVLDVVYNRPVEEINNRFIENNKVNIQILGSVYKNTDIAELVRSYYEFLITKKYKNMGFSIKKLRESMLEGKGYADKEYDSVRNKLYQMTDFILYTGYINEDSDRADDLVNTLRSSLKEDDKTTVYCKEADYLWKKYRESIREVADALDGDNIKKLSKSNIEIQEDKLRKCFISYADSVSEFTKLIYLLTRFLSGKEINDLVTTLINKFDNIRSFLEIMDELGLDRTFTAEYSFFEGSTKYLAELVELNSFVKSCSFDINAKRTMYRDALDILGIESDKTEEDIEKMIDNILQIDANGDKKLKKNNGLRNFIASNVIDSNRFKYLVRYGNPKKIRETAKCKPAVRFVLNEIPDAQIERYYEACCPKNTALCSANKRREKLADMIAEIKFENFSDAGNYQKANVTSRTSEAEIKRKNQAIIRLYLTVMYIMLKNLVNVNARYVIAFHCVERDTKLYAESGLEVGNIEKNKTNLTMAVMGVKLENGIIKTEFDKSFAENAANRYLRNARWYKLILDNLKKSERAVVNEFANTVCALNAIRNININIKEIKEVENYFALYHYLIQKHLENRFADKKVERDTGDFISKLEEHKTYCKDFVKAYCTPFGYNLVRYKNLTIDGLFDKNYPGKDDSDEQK


biological target: T1, EsCas13d, nuclease-dead; assay: crRNA (strand 1, pre-loaded); Mg2+; 40 mM Tris-HCl pH 7.5, 150 mM NaCl, 6 mM MgCl2, 1 mM DTT, 0.1% Tween-20, 0.2 mg/ml BSA; 25 C; 10 min per concentration, then washed; settings: tags: His6-TwinStrep-SUMO cleaved; N-terminal SNAP kept (SNAP-Surface 488); label: 3' end held by stalled T7 RNA polymerase

Binder | Kd
target 1 insA 3' of 22,insG 3' of 2 (mixed) RNA 1: CACCCGUGCAAAAAUGCAGGGGUCUAAAACUGAGCGGAUAACCUCUCUAUGG RNA 2: GGGAAUGGAUCCACAUCUACGAAUUCGUACACAUAGAGAGGUUAUCCGCUCGACCGAGAUCGGAAGAGCACACGU | 12.2 ± 0.9 nM
target 1 insG 3' of 21,insA 3' of 21 (mixed) RNA 1: CACCCGUGCAAAAAUGCAGGGGUCUAAAACUGAGCGGAUAACCUCUCUAUGG RNA 2: GGGAAUGGAUCCACAUCUACGAAUUCGUACCGAAUAGAGAGGUUAUCCGCUCACCGAGAUCGGAAGAGCACACGU | 27.3 ± 3.5 nM
target 1 insC 3' of 5,insG 3' of 2 (mixed) RNA 1: CACCCGUGCAAAAAUGCAGGGGUCUAAAACUGAGCGGAUAACCUCUCUAUGG RNA 2: GGGAAUGGAUCCACAUCUACGAAUUCGUACCAUAGAGAGGUUAUCCGCCUCGACCGAGAUCGGAAGAGCACACGU | 10 ± 0.5 nM
target 1 C2U,A9C (mixed) RNA 1: CACCCGUGCAAAAAUGCAGGGGUCUAAAACUGAGCGGAUAACCUCUCUAUGG RNA 2: GGGAAUGGAUCCACAUCUACGAAUUCGUACCAUAGAGAGGUUCUCCGCUUACCGAGAUCGGAAGAGCACACGU | 14.2 ± 0.5 nM
target 1 insC 3' of 12,insA 3' of 4 (mixed) RNA 1: CACCCGUGCAAAAAUGCAGGGGUCUAAAACUGAGCGGAUAACCUCUCUAUGG RNA 2: GGGAAUGGAUCCACAUCUACGAAUUCGUACCAUAGAGAGGCUUAUCCGCAUCACCGAGAUCGGAAGAGCACACGU | 7 ± 0.7 nM
target 1 insA 3' of 17,insA 3' of 10 (mixed) RNA 1: CACCCGUGCAAAAAUGCAGGGGUCUAAAACUGAGCGGAUAACCUCUCUAUGG RNA 2: GGGAAUGGAUCCACAUCUACGAAUUCGUACCAUAGAAGAGGUUAAUCCGCUCACCGAGAUCGGAAGAGCACACGU | 19.2 ± 1.7 nM
target 1 insG 3' of 11,insU 3' of 2 (mixed) RNA 1: CACCCGUGCAAAAAUGCAGGGGUCUAAAACUGAGCGGAUAACCUCUCUAUGG RNA 2: GGGAAUGGAUCCACAUCUACGAAUUCGUACCAUAGAGAGGUGUAUCCGCUCUACCGAGAUCGGAAGAGCACACGU | 50 ± 9 nM
target 1 C6A,G12C (mixed) RNA 1: CACCCGUGCAAAAAUGCAGGGGUCUAAAACUGAGCGGAUAACCUCUCUAUGG RNA 2: GGGAAUGGAUCCACAUCUACGAAUUCGUACCAUAGAGAGCUUAUCAGCUCACCGAGAUCGGAAGAGCACACGU | 14.8 ± 0.5 nM
target 1 insG 3' of 22,insU 3' of 4 (mixed) RNA 1: CACCCGUGCAAAAAUGCAGGGGUCUAAAACUGAGCGGAUAACCUCUCUAUGG RNA 2: GGGAAUGGAUCCACAUCUACGAAUUCGUACGCAUAGAGAGGUUAUCCGCUUCACCGAGAUCGGAAGAGCACACGU | 32 ± 5 nM
target 1 insG 3' of 8,insG 3' of 3 (mixed) RNA 1: CACCCGUGCAAAAAUGCAGGGGUCUAAAACUGAGCGGAUAACCUCUCUAUGG RNA 2: GGGAAUGGAUCCACAUCUACGAAUUCGUACCAUAGAGAGGUUAUGCCGCUGCACCGAGAUCGGAAGAGCACACGU | 7.7 ± 0.4 nM
target 1 insU 3' of 18 (mixed) RNA 1: CACCCGUGCAAAAAUGCAGGGGUCUAAAACUGAGCGGAUAACCUCUCUAUGG RNA 2: GGGAAUGGAUCCACAUCUACGAAUUCGUACCAUAUGAGAGGUUAUCCGCUCACCGAGAUCGGAAGAGCACACGU | 31 ± 3.2 nM
target 1 insU 3' of 9 (mixed) RNA 1: CACCCGUGCAAAAAUGCAGGGGUCUAAAACUGAGCGGAUAACCUCUCUAUGG RNA 2: GGGAAUGGAUCCACAUCUACGAAUUCGUACCAUAGAGAGGUUAUUCCGCUCACCGAGAUCGGAAGAGCACACGU | 13.1 ± 0.9 nM
target 1 insC 3' of 22,insU 3' of 18 (mixed) RNA 1: CACCCGUGCAAAAAUGCAGGGGUCUAAAACUGAGCGGAUAACCUCUCUAUGG RNA 2: GGGAAUGGAUCCACAUCUACGAAUUCGUACCCAUAUGAGAGGUUAUCCGCUCACCGAGAUCGGAAGAGCACACGU | 38 ± 9 nM
target 1 U8A,A18G (mixed) RNA 1: CACCCGUGCAAAAAUGCAGGGGUCUAAAACUGAGCGGAUAACCUCUCUAUGG RNA 2: GGGAAUGGAUCCACAUCUACGAAUUCGUACCAUGGAGAGGUUAACCGCUCACCGAGAUCGGAAGAGCACACGU | 72 ± 16 nM
target 1 C7U,A16C (mixed) RNA 1: CACCCGUGCAAAAAUGCAGGGGUCUAAAACUGAGCGGAUAACCUCUCUAUGG RNA 2: GGGAAUGGAUCCACAUCUACGAAUUCGUACCAUAGCGAGGUUAUUCGCUCACCGAGAUCGGAAGAGCACACGU | 43 ± 4 nM
target 1 insA 3' of 21,insC 3' of 15 (mixed) RNA 1: CACCCGUGCAAAAAUGCAGGGGUCUAAAACUGAGCGGAUAACCUCUCUAUGG RNA 2: GGGAAUGGAUCCACAUCUACGAAUUCGUACCAAUAGAGCAGGUUAUCCGCUCACCGAGAUCGGAAGAGCACACGU | 55 ± 11 nM
target 1 U8G,A9U (mixed) RNA 1: CACCCGUGCAAAAAUGCAGGGGUCUAAAACUGAGCGGAUAACCUCUCUAUGG RNA 2: GGGAAUGGAUCCACAUCUACGAAUUCGUACCAUAGAGAGGUUUGCCGCUCACCGAGAUCGGAAGAGCACACGU | 11.4 ± 0.4 nM
target 1 insG 3' of 19,insG 3' of 16 (mixed) RNA 1: CACCCGUGCAAAAAUGCAGGGGUCUAAAACUGAGCGGAUAACCUCUCUAUGG RNA 2: GGGAAUGGAUCCACAUCUACGAAUUCGUACCAUGAGAGGAGGUUAUCCGCUCACCGAGAUCGGAAGAGCACACGU | 97 ± 16 nM
target 1 insU 3' of 12,insU 3' of 2 (mixed) RNA 1: CACCCGUGCAAAAAUGCAGGGGUCUAAAACUGAGCGGAUAACCUCUCUAUGG RNA 2: GGGAAUGGAUCCACAUCUACGAAUUCGUACCAUAGAGAGGUUUAUCCGCUCUACCGAGAUCGGAAGAGCACACGU | 8.3 ± 0.8 nM
target 1 insC 3' of 22,insC 3' of 9 (mixed) RNA 1: CACCCGUGCAAAAAUGCAGGGGUCUAAAACUGAGCGGAUAACCUCUCUAUGG RNA 2: GGGAAUGGAUCCACAUCUACGAAUUCGUACCCAUAGAGAGGUUACUCCGCUCACCGAGAUCGGAAGAGCACACGU | 50 ± 13 nM
target 1 A9G,U19A (mixed) RNA 1: CACCCGUGCAAAAAUGCAGGGGUCUAAAACUGAGCGGAUAACCUCUCUAUGG RNA 2: GGGAAUGGAUCCACAUCUACGAAUUCGUACCAAAGAGAGGUUGUCCGCUCACCGAGAUCGGAAGAGCACACGU | 44 ± 5 nM
target 1 U3G,U11G (mixed) RNA 1: CACCCGUGCAAAAAUGCAGGGGUCUAAAACUGAGCGGAUAACCUCUCUAUGG RNA 2: GGGAAUGGAUCCACAUCUACGAAUUCGUACCAUAGAGAGGGUAUCCGCGCACCGAGAUCGGAAGAGCACACGU | 11.7 ± 0.9 nM
target 1 insA 3' of 7,insU 3' of 2 (mixed) RNA 1: CACCCGUGCAAAAAUGCAGGGGUCUAAAACUGAGCGGAUAACCUCUCUAUGG RNA 2: GGGAAUGGAUCCACAUCUACGAAUUCGUACCAUAGAGAGGUUAUCACGCUCUACCGAGAUCGGAAGAGCACACGU | 7.5 ± 0.6 nM
target 1 U3C,A14G (mixed) RNA 1: CACCCGUGCAAAAAUGCAGGGGUCUAAAACUGAGCGGAUAACCUCUCUAUGG RNA 2: GGGAAUGGAUCCACAUCUACGAAUUCGUACCAUAGAGGGGUUAUCCGCCCACCGAGAUCGGAAGAGCACACGU | 57 ± 18 nM
